Data on five molecules can be found in PMC7427332, “Tuning Transcription Factor Availability through Acetylation-Mediated Genomic Redistribution”.

Data set [1] deals with T1, MITF DNA-binding domain K243R (mouse? (MITF mouse cDNA stated for …, UniProt Q08874 287-403, K350R)). The experiment in a line: fluorescence anisotropy; FA: 10 mM Tris/HCl pH 7.5, 300 mM NaCl, 0.01% Triton X-100, 0.1 mg/mL BSA, 1.33 nM DNA, 25 C, 5 min; EMSA: 25 mM HEPES pH 7.4, 150 mM KCl, 10% glycerol, 200 ug/ml BSA, 5 uM DTT, 20 min, 6% native gel. As to conditions: protein: recombinant; tags: His (Ni-NTA purified; pETM-11 vector); chain copies: 2; label: 3'-fluorescein on strand 1; blunt. On the technique in general: Polarisation of emitted light reports the rotation of a fluorescent probe.

The target in data set [2] is T2, MITF DNA-binding domain K243Q (mouse? (MITF mouse cDNA stated for …, UniProt Q08874 287-403, K350Q)). The description is as above. Conditions: protein: recombinant; tags: His (Ni-NTA purified; pETM-11 vector); chain copies: 2; label: 3'-fluorescein on strand 1; blunt.
The target in data set [3] is T1, MITF DNA-binding domain K243R. Put plainly: competition; competing N5 in EMSA; FA: 10 mM Tris/HCl pH 7.5, 300 mM NaCl, 0.01% Triton X-100, 0.1 mg/mL BSA, 1.33 nM DNA, 25 C, 5 min; EMSA: 25 mM HEPES pH 7.4, 150 mM KCl, 10% glycerol, 200 ug/ml BSA, 5 uM DTT, 20 min, 6% native gel. As to conditions: protein: recombinant; tags: His (Ni-NTA purified; pETM-11 vector); chain copies: 2; blunt.

Data set [4] has as its target T2, MITF DNA-binding domain K243Q. Described as above. Conditions: protein: recombinant; tags: His (Ni-NTA purified; pETM-11 vector); chain copies: 2; blunt.
The target of data set [5] is T3, MITF DNA-binding domain WT (bHLH-LZ) (mouse? (MITF mouse cDNA stated for …, UniProt Q08874 287-403)). The data set is described as above. Conditions: protein: recombinant; tags: His (Ni-NTA purified; pETM-11 vector); chain copies: 2; blunt.
Data set [6] addresses T1, MITF DNA-binding domain K243R. The experiment in a line: competition; competing N5 in EMSA; low-affinity motif; FA: 10 mM Tris/HCl pH 7.5, 300 mM NaCl, 0.01% Triton X-100, 0.1 mg/mL BSA, 1.33 nM DNA, 25 C, 5 min; EMSA: 25 mM HEPES pH 7.4, 150 mM KCl, 10% glycerol, 200 ug/ml BSA, 5 uM DTT, 20 min, 6% native gel. As to conditions: protein: recombinant; tags: His (Ni-NTA purified; pETM-11 vector); chain copies: 2; blunt. For orientation: A gel shift assay detects complexes by their altered migration in electrophoresis.

For data set [7], the target named is T3, MITF DNA-binding domain WT (bHLH-LZ). The data set is described as above. As to conditions: protein: recombinant; tags: His (Ni-NTA purified; pETM-11 vector); chain copies: 2; blunt.
In data set [8] the target is T2, MITF DNA-binding domain K243Q. The experiment in a line: fluorescence anisotropy; FA: 10 mM Tris/HCl pH 7.5, 300 mM NaCl, 0.01% Triton X-100, 0.1 mg/mL BSA, 1.33 nM DNA, 25 C, 5 min; EMSA: 25 mM HEPES pH 7.4, 150 mM KCl, 10% glycerol, 200 ug/ml BSA, 5 uM DTT, 20 min, 6% native gel. Conditions: protein: recombinant; tags: His (Ni-NTA purified; pETM-11 vector); chain copies: 2; label: 3'-fluorescein on strand 1; blunt. The source holds these as a separate data set.

Data set [9] has the same target. The description is as above. Conditions: protein: recombinant; tags: His (Ni-NTA purified; pETM-11 vector); chain copies: 2; label: 3'-fluorescein on strand 1; blunt. This is another data set of the same source.
Data set [10] concerns the target T3, MITF DNA-binding domain WT (bHLH-LZ). The description is as above. As to conditions: protein: recombinant; tags: His (Ni-NTA purified; pETM-11 vector); chain copies: 2; label: 3'-fluorescein on strand 1; blunt.

T3 sequence (Q08874 287-403): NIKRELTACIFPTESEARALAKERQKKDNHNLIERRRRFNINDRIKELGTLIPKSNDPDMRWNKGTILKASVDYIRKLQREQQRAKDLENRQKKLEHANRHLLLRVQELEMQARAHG
T1 sequence (Q08874 287-403 K350R): as the sequence (Q08874 287-403) above, with K64R counted along it
T2 sequence (Q08874 287-403 K350Q): as the sequence (Q08874 287-403) above, with K64Q counted along it

B1: M-box FA probe (dsDNA)
DNA 1: GAGATCATGTGTTGAC
DNA 2: GTCAACACATGATCTC
As to B1, the binding signal in data set [1] was ~4 fold lower affinity than WT protein on same site; in data set [2] it was 35 fold lower affinity than WT protein on same site.

B2: TCACGTGA cold competitor (dsDNA)
DNA 1: CTAGACTTGTGGAGATCACGTGATGACTTCCTGATTCCT
DNA 2: AGGAATCAGGAAGTCATCACGTGATCTCCACAAGTCTAG
B2: the binding result in [3], in [4] and in [5] was “binds” each time.

B3: TCACGTTA cold competitor (dsDNA)
DNA 1: CTAGACTTGTGGAGATCACGTTATGACTTCCTGATTCCT
DNA 2: AGGAATCAGGAAGTCATAACGTGATCTCCACAAGTCTAG
Consider B3, for which the results for the binding result in data set [4], in [6] and in data set [7] were “no binding”, “binds” and “binds”, respectively.

B4: E-box FA probe (dsDNA)
DNA 1: GAGACCACGTGTTGAC
DNA 2: GTCAACACGTGGTCTC
B4: the binding signal in data set [1] is ~4 fold lower affinity than WT protein on same site; in [8], 21 fold lower affinity than WT protein on same site.

B5: Consensus CLEAR box FA probe (dsDNA)
DNA 1: GAGATCACGTGATGAC
DNA 2: GTCATCACGTGATCTC
Take B5: the figures for the binding signal in data set [9] and in data set [1] were ~7 fold lower affinity than WT protein on same site and ~4 fold lower affinity than WT protein on same site, respectively. The binding result in data set [10] is “binds”.
